# Substitutions are numbered along the chain they refer to.
# B1: 5E5WT scFv-Fc antibody (scFv, part only; not given: Linker, domain order, Fc, V domains shown, not shown: another chain or arm of the molecule; a dimerising Fc or GST; small tags and cut ends)
# VH: QLQLVESGGGLVQPGGSLRLSCAASGFTFGTYSMRWVRQVPRKALEWVSSISTDGGGTAYRDSVKGRFTISRDNAKNTLYLQMNNLKPEDTAIYYCVIAGYSDWGQGTQVTVSS
# VL: ATMLTQSPGSLSVVPGESASISCKTSQGLVHSDGKTYFYWFLQKPGQSPQQLIYQVSNRASGVPDRFTGSGSGTDFTLKISGVKAEDAGVYYCAQGTYYPHTFGSGTRLEIK
# B2: 5E5VH12_VLWT scFv-Fc antibody (scFv, part only; not given: Linker, domain order, Fc, V domains shown, not shown: another chain or arm of the molecule; a dimerising Fc or GST; small tags and cut ends)
# VH: B1 VH with A99H
# VL: B1 VL
# B3: 5E5VHWT_VL8 scFv-Fc antibody (scFv, part only; not given: Linker, domain order, Fc, V domains shown, not shown: another chain or arm of the molecule; a dimerising Fc or GST; small tags and cut ends)
# VH: B1 VH
# VL: B1 VL with Q95H
# B4: 5E5VH5_VLWT scFv-Fc antibody (scFv, part only; not given: Linker, domain order, Fc, V domains shown, not shown: another chain or arm of the molecule; a dimerising Fc or GST; small tags and cut ends)
# VH: B1 VH with S52H
# VL: B1 VL
# Biological target: biotinylated human ApoC3 (human) (UniProt P02656)
# Assay: SPR, biotinylated human ApoC3 on streptavidin chip, scFv-Fc injected, pH 5.5
# Chain of UniProt P02656 (P02656 21-99): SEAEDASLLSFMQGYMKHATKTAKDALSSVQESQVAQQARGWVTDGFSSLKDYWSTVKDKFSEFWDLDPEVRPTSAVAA
Kd [nM],koff [s⁻¹],kon [M⁻¹ s⁻¹],Binder
0.06,2.53e-05,393000,B1
16,0.00206,129000,B2
4.29,0.00116,269000,B3
10.9,0.0016,147000,B4

# Biological target: biotinylated human ApoC3 (human) (UniProt P02656)
# Assay: SPR, biotinylated human ApoC3 on streptavidin chip, scFv-Fc injected, pH 7.4
Kd [nM],koff [s⁻¹],kon [M⁻¹ s⁻¹],Binder
0.02,1.75e-05,823000,B1
0.51,0.000157,308000,B2
0.58,0.000221,381000,B3
0.59,0.000105,178000,B4

# Biological target: biotinylated human ApoC3 (human) (UniProt P02656)
# Assay: SPR, biotinylated human ApoC3 on streptavidin chip, scFv-Fc injected; ratio of KD at pH 5.5 to KD at pH 7.4
row,KD pH 5.5/KD pH 7.4,Binder
1,3,B1
2,31.4,B2
3,7.4,B3
4,18.5,B4

# Reference: patent publication US20200148755A1
